Reference: paper PMC11889887, “Blockade of αvβ6 and αvβ8 integrins with a chromogranin A-derived peptide inhibits TGFβ activation in tumors and suppresses tumor growth” (Journal of Experimental & Clinical Cancer Research : CR, 2025)
Bridge positions count the residues as written; N and C are the ends. Square brackets hold non-standard residues; d marks the D form. Ends that are not written are not given here. Lys(N3) = [N-]=[N+]=NCCCC[C@H](N)C(=O)O; Pra = C#CC[C@H](N)C(=O)O

Legend:
[1] = biological target: T1, biotinylated recombinant human αvβ6 integrin (human, UniProt P06756 31-1048; P18564 22-709, biotinylated (which chain is not stated) | biotinylated (which chain is not stated)); assay: ELISA; competitive integrin binding assay (taken as Assay 3): plates coated with human latent TGFβ1; various amounts of peptide 5a or 5a-HSA with 10 ng/ml biotinylated αvβ6 or αvβ8 in 20 mM Tris-HCl pH 7.4, 150 mM sodium chloride, 1 mM manganese chloride, 0.05% Tween-20, 0.5% BSA, 1 h; HRP-labeled streptavidin; conditions: both partners purified
T1 construct: integrin alpha-V, human, recombinant; integrin beta-6, human, recombinant; Detected by HRP-labeled streptavidin through the biotin; also called biotinylated-αvβ6; source: bought: Acros CROBiosystems (cat. IT6-H82E4)

[2] = biological target: T2, biotinylated recombinant human αvβ8 integrin (human, UniProt P06756 31-1048; P26012 43-684, biotinylated (which chain is not stated) | biotinylated (which chain is not stated)); assay: as above; conditions: both partners purified
T2 construct: integrin alpha-V, human, recombinant; integrin beta-8, human, recombinant; Detected by HRP-labeled streptavidin through the biotin; also called biotinylated-αvβ8; source: bought: Acros CROBiosystems (cat. IT8-H82W5)

Ki [1]: 1.7 nM
Ki [2]: 3.9 nM
B1: peptide 5a (peptide)
chain: CFETLRGDLRILSILR[Pra]QNL[Lys(N3)]KELQD-NH2
modifications: triazole 17-21
